The target of the experiment is T1, phosphorylated ubiquitin (UniProt P0CG48 1-76, phosphorylated by PINK1 (pUb); the residue is not given).
T1 construct: ubiquitin, phosphorylated by PINK1 (pUb); also called pUb; phospho-ubiquitin; source: E. coli BL21(DE3)CodonPlus-RIL; phosphorylated with Pediculus humanus PINK1, purified (Superdex 75)
The experiment in a line: SEC; 1.5-fold excess pUb over R0RBR in 20 mM Tris, 75 mM NaCl, 250 uM TCEP, pH 8; 1:1 complex purified on Superdex 75 10/300. The settings on record: both partners purified.

B1: R0RBR parkin (141-465) (domain or fragment, human, UniProt O60260 141-465, looked up)
chain: SIYNSFYVYCKGPCQRVQPGKLRVQCSTCRQATLTLTQGPSCWDDVLIPNRMSGECQSPHCPGTSAEFFFKCGAHPTSDKETSVALHLIATNSRNITCITCTDVRSPVLVFQCNSRHVICLDCFHLYCVTRLNDRQFVHDPQLGYSLPCVAGCPNSLIKELHHFRILGEEQYNRYQQYGAEECVLQMGGVLCPRPGCGAGLLPEPDQRKVTCEGGNGLGCGFAFCRECKEAYHEGECSAVFEASGTTTQAYRVDERAAEQARWEAASKETIKKTTKPCPRCHVPVEKNGGCMHMKCPQPQCRLEWCWNCGCEWNRVCMGDHWFDV
notes: parkin, human, residues 141-465 (R0RBR: RING0-RING1-IBR-RING2(Rcat)); also called R0RBR C-terminal region of parkin; source: E. coli BL21(DE3), purified (HisTrap, Ulp1 cleavage, HisTrap, Superdex 75); not shown: His-smt3, N-terminal, cleaved
B1: the binding result is on record as “binds”.
